From patent US20220096653A1, “CONJUGATE COMPRISING LIGAND AND CEACAM5 ANTIBODY FAB FRAGMENT” (ASTELLAS PHARMA INC., priority 2019, published 2022)
Where two headings read alike, the source gives them in different places.

Legend:
[1] = biological target: human cancer-specific MUC1 peptide (PTL 1) (human); experiment: ELISA on immobilised human cancer-specific MUC1 peptide, 4-parameter fit, duplicate (Example 6-1)
[2] = biological target: human cancer-specific MUC1 peptide (PTL 1) (human); experiment: ELISA on immobilised human cancer-specific MUC1 peptide, 4-parameter fit, duplicate (Example 6-2)
[3] = biological target: T1, CEACAM5 (R&D Systems, 4128-CM-050) (human, UniProt P06731 35-685); experiment: ELISA on immobilised CEACAM5, 4-parameter fit, duplicate (Example 3-2)
T1 construct: Immobilised on the ELISA plate; also called human CEACAM5
T1 sequence (looked up): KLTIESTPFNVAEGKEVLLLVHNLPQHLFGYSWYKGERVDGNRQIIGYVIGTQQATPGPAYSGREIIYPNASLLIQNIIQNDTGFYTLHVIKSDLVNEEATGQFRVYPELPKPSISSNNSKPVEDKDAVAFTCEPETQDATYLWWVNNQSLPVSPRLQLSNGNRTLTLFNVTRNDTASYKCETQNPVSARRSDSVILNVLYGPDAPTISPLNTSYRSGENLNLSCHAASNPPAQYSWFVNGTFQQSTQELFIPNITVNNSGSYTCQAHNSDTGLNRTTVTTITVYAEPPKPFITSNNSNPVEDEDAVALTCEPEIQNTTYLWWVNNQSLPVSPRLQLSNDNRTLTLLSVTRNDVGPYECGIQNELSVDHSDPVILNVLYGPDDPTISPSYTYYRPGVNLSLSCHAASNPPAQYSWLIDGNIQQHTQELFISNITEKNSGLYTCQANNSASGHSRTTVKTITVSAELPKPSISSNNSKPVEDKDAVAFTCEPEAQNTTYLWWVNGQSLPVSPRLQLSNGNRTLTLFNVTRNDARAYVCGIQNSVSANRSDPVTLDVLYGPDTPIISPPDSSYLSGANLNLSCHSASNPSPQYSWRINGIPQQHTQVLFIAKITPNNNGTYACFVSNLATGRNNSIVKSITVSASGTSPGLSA
Description: Each anti-human CEACAM5 antibody Fab fragment conjugate prepared in Example 2 was subjected to ELISA to evaluate the binding activity thereof to CEACAM5. In the present test, a phosphate buffer (Nacalai Tesque Inc., 0.1 mol/L-Phosphate Buffer Solution (pH 7.2)) prepared to 10 mM by diluting 10-fold with distilled water was used as a solvent for an antigen immobilization liquid, and 20×PBS/Tween 20 Buffer (Thermo Fisher Scientific Inc., 28352) diluted 20-fold with distilled water was used as a wash liquid. In addition, for bovine serum albumin (BSA) used in the present test, 30% Bovine Serum Albumin solution (Sigma-Aldrich, Inc., A9576-50ML) was added in an appropriate proportion for use. CEACAM5 (R&D Systems, 4128-CM-050) was diluted with a 10 mM phosphate buffer (pH 7.2) to 0.1 μg/mL, and added to a Nunc MaxiSorp White 384 plate (Nunc, 4603272) at 30 μL per well, and the plate was incubated overnight at 4° C. for immobilization. The CEACAM5 immobilization liquid was removed by reverse centrifugation, and then blocking was carried out by adding a PBS/Tween 20 buffer containing 5.0% BSA. […] The substrate was incubated at room temperature for 15 minutes, and then a signal value thereof was measured using an Envision counter (PerkinElmer, Inc.).
The test for each antibody was carried out in duplicate, and the EC₅₀ value was calculated using a 4-parameter logistic curve model.

[4] = biological target: human cancer-specific MUC1 peptide (Homo sapiens, UniProt P15941); experiment: ELISA binding activity of anti-human MUC1 antibody Fab^5 fragment conjugates (Example 6-2)
human cancer-specific MUC1 peptide (Homo sapiens, UniProt P15941), sequence (P15941 136-155): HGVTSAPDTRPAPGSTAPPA
Description: (§1) Each anti-human MUC1 antibody Fab^5 fragment conjugate prepared by the method of Example 5 was subjected to ELISA to evaluate the binding activity thereof to human cancer-specific MUC1. In the present test, 20×PBS/Tween 20 Buffer (Thermo Fisher Scientific Inc., 28352) diluted 20-fold with distilled water was used as a wash liquid. In addition, for bovine serum albumin (BSA) used in the present test, 30% Bovine Serum Albumin solution (Sigma-Aldrich, Inc., A9576-50ML) was added in an appropriate proportion for use. A human cancer-specific MUC1 peptide (PTL 1) at 0.5 μmol/L was added to a Nunc MaxiSorp White 384 plate (Nunc, 460372) at 30 μL per well, and the plate was incubated overnight at 4° C. for immobilization. The MUC1 peptide was removed by reverse centrifugation, and then blocking was carried out by adding a PBS/Tween 20 buffer containing 5.0% BSA. Thereafter, the blocking solution was removed by reverse centrifugation, a solution of each anti-human MUC1 antibody Fab^5 fragment conjugate (Ex-No. 101-113) described above at about 10000 ng/mL was diluted in 14 steps by 3-fold dilution using a PBS/Tween 20 buffer containing 1.0% BSA, and 30 μL was added per well and incubated at room temperature for 60 minutes. The plate was washed 3 times with a PBS/Tween 20 buffer, and Horseradish Peroxidase-labeled goat anti-human IgK antibody (Southern Biotechnology Associates, Inc.) diluted 10000-fold using a PBS/Tween 20 buffer containing 5.0% BSA was added at 30 μL per well and incubated at room temperature for 30 minutes. The plate was washed 3 times with a PBS/Tween 20 buffer, and ECL Prime Western Blotting DETECTION Reagent (GE Healthcare, RPN2232) as a substrate was added at 30 μL per well. The substrate was incubated at room temperature for 15 minutes, and then a signal value thereof was measured using an Envision counter (PerkinElmer, Inc.).
(§2) The test for each antibody was carried out in duplicate, and the EC50 value was calculated using a 4-parameter logistic curve model.

[5] = biological target: human cancer-specific MUC1 peptide; experiment: ELISA binding activity of anti-human MUC1 antibody Fab^5 fragment conjugates (Example 6-1)
Description: as §1, with “104, 108, or 112)” for “101-113)”
as §2

[6] = parameters: species or system mice (BALB/c nu/nu); details: mouse, in vivo
Description: A Gd-labeled conjugate of the conjugate containing a peptide linker produced in one of the above Examples was administered from the tail vein of the tumor-bearing mice so that the protein mass was 0.02 mg (100 μL) per animal. As the tumor-bearing mice used in the present Example, mice (BALB/c nu/nu) that were in a tumor-bearing state brought about by transplanting human breast cancer cell line MDA-MB-468 (ATCC(registered trademark); HTB-132) at 5.0×10^6 cells/mouse subcutaneously on the back before administration of the sample were used. 24 hours after administration of the sample, the mice were sacrificed, the kidneys and the tumor were removed, and the amounts of Gd in the kidneys and in the tumor were measured using ICP-MS. The present test was carried out in 3 cases in each group, and the mean value of the 3 cases was calculated. The amount of Gd contained per kidney after administration was shown as a percentage of the amount of Gd administered (% of dose/tissue), and the amount of Gd contained per g of tumor tissue was shown as a percentage of the total amount of Gd administered (% of dose/g).

[7] = parameters: species or system mice (BALB/c or BALB/c nu/nu); details: mouse, in vivo
Description: A Gd-labeled conjugate of the conjugate containing a peptide linker produced in one of the above Examples was administered from the tail vein of mice (BALB/c or BALB/c nu/nu) so that the protein mass was 0.02 mg (100 μL) per animal. After about 24 hours, the mice were sacrificed and the kidneys were removed, and the amount of Gd in the kidneys was measured using ICP-MS. The present test was carried out in 3 cases in each group, the mean value of the 3 cases was calculated, and the amount of Gd contained per kidney after administration was shown as a percentage (% of dose/tissue) of the total amount of Gd administered.
Based on the amount of Gd contained in the kidneys of the control conjugate, the proportion of decrease in the amount of Gd contained in the kidneys of each of the conjugates having a peptide linker was determined.

[8] = each conjugate run in duplicate, Table 54, read-out: EC50

B1: [Gd/DOTA-NH-CH2-(1,4-Ph)-NH-C(═O)-Met-Ile-NH-(CH2)2-(A-4 and/or A-5)]p-Fab^5 (Fab, V domains shown)
VH: QVQLVQSGAEVKKPGASVKVSCKASGYTFTNYGLSWVRQAPGQGLEWMGENHPGSGIIYHNEKFRGRVTLTADRSTSTAYMELSSLRSEDTAVYYCARSSGTRGFDYWGQGTLVTVSS
VL: DVVMTQTPLSLSVTPGQPASISCRSSQSIVHSNGNTYLEWYLQKPGQSPQLLIYRVSNRFSGVPDRFSGSGSGTDFTLKISRVEAEDVGVYYCFQGSHGPWTFGQGTKLEIKR
modifications: labeling may sit on this chain; sites not stated; labeling portion (MW 1092) on amino groups of the Fab, sites and chain not stated; 1-3 per Fab by MS; Gln 1 pyroglutamic acid as Fab^5 is defined in paragraph 370
B1 showed an EC50 [1] of 0.08 nM.

B2: [Gd/DOTA-NH-CH2-(1,4-Ph)-NH-C(═O)-Met-Ile-NH-(CH2)2-(A-3)]p-Fab^5 (Fab, V domains shown)
VH: B1 VH
VL: B1 VL
modifications: labeling may sit on this chain; sites not stated; labeling portion (MW 1187) on amino groups of the Fab, sites and chain not stated; 1-2 per Fab by MS; Gln 1 pyroglutamic acid as Fab^5 is defined in paragraph 370
B2 gave an EC50 [1] of 0.15 nM.

B3: Ex-No 108, conjugate of Fab^5 without peptide linker (structure given only as drawing CHEM-US-00165) (Fab, V domains shown)
VH: B1 VH
VL: B1 VL
modifications: labeling may sit on this chain; sites not stated; low molecular weight molecule (MW 542) bound to the Fab, sites and chain not stated; 1-3 per Fab by MS; Gln 1 pyroglutamic acid as Fab^5 is defined in paragraph 370
For B3, the EC50 [2] was 0.07 nM and the EC50 [1] was 0.07 nM.

B4: [Gd/DOTA-NH-CH2-(1,4-Ph)-NH-C(═O)-Met-Ile-NH-(CH2)2-(A-4 and/or A-5)]p-Fab^2 (Fab, V domains shown)
VH: EVQLVESGGGLVQPGGSLRLSCAASGFNIRDTYMHWVRQAPGKGLEWVARIDPANGNSRYVPKFQGRFTISADTSRNTAYLQMNSLRAEDTAVYYCAPFGYYVSDYAMAYWGQGTLVTVSS
VL: DIQLTQSPSSLSASVGDRVTITCRAGESVDIFGVGFLHWYQQKPGKAPKLLIYRASNLESGIPSRFSGSGSRTDFTLTISSLQPEDFATYYCQQTNEDPYTFGQGTKVEIKR
modifications: labeling may sit on this chain; sites not stated; labeling portion (MW 1092) on amino groups of the Fab, sites and chain not stated; 1-4 per Fab by MS
notes: also called Ex-No 66; Conjugate No. 66
Molecule B4 has an EC50 [3] of 0.16 nM.

B5: [Gd/DOTA-NH-CH2-(1,4-Ph)-NH-C(═O)-Met-Ile-NH-(CH2)2-(A-3)]p-Fab^2 (Fab, V domains shown)
VH: B4 VH
VL: B4 VL
modifications: labeling may sit on this chain; sites not stated; labeling portion (MW 1187) on amino groups of the Fab, sites and chain not stated; 1-3 per Fab by MS
notes: also called Ex-No 68; Conjugate No. 68
Molecule B5 has an EC50 [3] of 0.31 nM.

B6: P10-2: anti-human MUC1 antibody Fab fragment disclosed in International Publication WO2018/092885; heavy chain fragment SEQ ID NO: 8, light chain SEQ ID NO: 10 (antibody)
heavy: QVQLVQSGAEVKKPGASVKVSCKASGYTFTNYGLSWVRQAPGQGLEWMGENHPGSGIIYHNEKFRGRVTLTADRSTSTAYMELSSLRSEDTAVYYCARSSGTRGFDYWGQGTLVTVSSASTKGPSVFPLAPSSKSTSGGTAALGCLVKDYFPEPVTVSWNSGALTSGVHTFPAVLQSSGLYSLSSVVTVPSSSLGTQTYICNVNHKPSNTKVDKKVEPKSCD
light: DVVMTQTPLSLSVTPGQPASISCRSSQSIVHSNGNTYLEWYLQKPGQSPQLLIYRVSNRFSGVPDRFSGSGSGTDFTLKISRVEAEDVGVYYCFQGSHGPWTFGQGTKLEIKRTVAAPSVFIFPPSDEQLKSGTASVVCLLNNFYPREAKVQWKVDNALQSGNSQESVTEQDSKDSTYSLSSTLTLSKADYEKHKVYACEVTHQGLSSPVTKSFNRGEC
modifications: P10-2 Fab heavy chain fragment; Antibody light chain
With B6 the EC50 ([4]; EC50 value for each of 3 runs, Table 53, read-out: EC50 P10-2) was 0.06 nM and the EC50 ([5]; EC50 value for each of 3 runs, Table 51, read-out: EC50 P10-2) was 0.06 nM.

B7: [Gd/DOTA-NH—CH2-(1,4-Ph)-NH—C(═O)-Met-Ile-NH—(CH2)2-(A-3)]p-Fab^5 (conjugate)
heavy: B6 heavy
light: B6 light
modifications: non-natural residues
With B7 the EC50 ([5]; each conjugate run in duplicate, Table 52, read-out: EC50) was 0.15 nM, the “Renal residual amount (tumor-bearing mice) % of dose/tissue” value [6] was 4.13 % of dose/tissue and the “Renal residual amount (tumor-bearing mice) Proportion of decrease” value [6] was 88.08%. For the same molecule, the “Renal residual amount (normal mice) % of dose/tissue” value [7] was 2.80 % of dose/tissue and the “Renal residual amount (normal mice) Proportion of decrease” value [7] was 91.52%.

B8: [Gd/DOTA-[2,5-(1,2,3,4-tetrahydroisoquinoline)]-C(═O)-Met-Gly-Lys*-C(═S)—NH-(1,4-Ph)-NH—C(═S)]p-Fab^5 (conjugate)
heavy: B6 heavy
light: B6 light
modifications: non-natural residues
Molecule B8 has an EC50 [4, 8] of 0.19 nM.

B9: [Gd/DOTA-NH—CH2-(1,4-Ph)-NH—C(═O)-Met-Ile-NH—(CH2)2—Z1(#N)]p-Fab^5 (conjugate)
heavy: B6 heavy
light: B6 light
modifications: non-natural residues
Molecule B9 has an EC50 [4, 8] of 0.08 nM.
